Test results reported in the supplement of paper PMC12764529.
± gives the half width of the 95% confidence interval.

Legend:
[1] = folding stability dG unfold (combined trypsin and chymotrypsin); higher = more stable
Outline: (§1)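 Sequencing followed digestion of designed mini-proteins with trypsin and chymotrypsin, each at 11 concentrations in threefold dilutions together with a no-protease condition. The mini-proteins were under 80 residues, had no cysteine, sat in a PA-tagged cDNA display construct, and were kept only if AlphaFold2 dimer inter-PAE was above 15. From the counts, Bayesian fitting gave K50, and unfolding free energy was derived against a sequence-predicted unfolded-state K50 and a shared folded-state K50, per protease or combined.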

[2] = folding stability dG unfold from trypsin proteolysis; higher = more stable
Outline: as §1

[3] = folding stability dG unfold from chymotrypsin proteolysis; higher = more stable
Outline: as §1

SAGGSAMKKIPKENVEKVIEFTDKNGKKITIVYNKKTGKAYIFDKKTKKVIEIDMTEDEIKKLLKSSAGGSA [r15_810_TrROS_Hall]
folding stability dG unfold [1]: 1.89 ± 0.054 kcal/mol | folding stability dG unfold [2]: 1.1 ± 0.023 kcal/mol | folding stability dG unfold [3]: 2.13 ± 0.061 kcal/mol

SAGGSAMKKLTIELPDPDITPEEAEKRAREIAEKIAEGNYKVEEIKVEPVDPEKNVYRGTVIIKELSAGGSA [r15_96_JUSTAS]
folding stability dG unfold [1]: 0.507 ± 0.34 kcal/mol | folding stability dG unfold [2]: 0.64 ± 0.13 kcal/mol | folding stability dG unfold [3]: 0.365 ± 0.27 kcal/mol

SAGGSAMKLPKNVKITITKNKDGTVTITITYPDGKKITITMKIDKNGKLKFTKEQIKKLIKELAKKSAGGSA [r15_780_TrROS_Hall]
folding stability dG unfold [1]: 2.53 ± 0.22 kcal/mol | folding stability dG unfold [2]: 2.74 ± 0.089 kcal/mol | folding stability dG unfold [3]: 2.52 ± 0.082 kcal/mol

SAGGSAMKLTLKDKKGNTLFLEVEEKTSEDGTPYYEVKIYYPNTNKVEYAEVPVENLEEFAKKLADSAGGSA [r15_92_TrMRF]
folding stability dG unfold [1]: 3.25 ± 0.18 kcal/mol | folding stability dG unfold [2]: 3.21 ± 0.09 kcal/mol | folding stability dG unfold [3]: 3.31 ± 0.086 kcal/mol

SAGGSAMKVDPSTKVVTVTDPKTGKEYRVNLPDVPPEKGVEVKVDNGKVTVKTEEGVRVIPYSELKSAGGSA [r15_864_JUSTAS]
folding stability dG unfold [1]: 0.71 ± 0.097 kcal/mol | folding stability dG unfold [2]: 0.609 ± 0.044 kcal/mol | folding stability dG unfold [3]: 0.538 ± 0.12 kcal/mol

SAGGSAMKVRLEVEEEDGKLRVRLEVEVGPPVVRVEVEAEVEEVDGELVLKVTVKVELSPEALEALSAGGSA [r15_725_TrROS_Hall]
folding stability dG unfold [1]: 3.78 ± 0.15 kcal/mol | folding stability dG unfold [2]: 3.47 ± 0.22 kcal/mol | folding stability dG unfold [3]: 3.78 ± 0.11 kcal/mol

SAGGSAMKVYKIKLEFENEETGKRVEIEAEVVEVDGELYLVMKAKVVDEETGEEKEIEIVIKLPKESAGGSA [r15_960_TrROS_Hall]
folding stability dG unfold [1]: 2.31 ± 0.21 kcal/mol | folding stability dG unfold [2]: 2.48 ± 0.21 kcal/mol | folding stability dG unfold [3]: 2.27 ± 0.4 kcal/mol

SAGGSAMLKVTERTVEVEVFDEEGNPIGWRERKIVVEDPLSPEPRPPPPPVDPVLAAETLGADVLESAGGSA [r15_572_JUSTAS]
folding stability dG unfold [1]: 0.393 ± 0.14 kcal/mol | folding stability dG unfold [2]: -0.0577 ± 0.14 kcal/mol | folding stability dG unfold [3]: 0.543 ± 0.21 kcal/mol

SAGGSAMLTLLYRVPPGDPLAHAREIAEALEERFGAKVRILDVKVERDPVTREVYIPVVVELELPESAGGSA [r15_70_TrMRF]
folding stability dG unfold [1]: 1.14 ± 0.17 kcal/mol | folding stability dG unfold [2]: 0.856 ± 0.074 kcal/mol | folding stability dG unfold [3]: 1.3 ± 0.16 kcal/mol

SAGGSAMLVFKITIKNPETNETIELEIEAETLEEAKEAIEKLIAELTGKEPTEIKIEVVEIKEEDLSAGGSA [r15_670_TrROS_Hall]
folding stability dG unfold [1]: 4.42 ± 0.27 kcal/mol | folding stability dG unfold [2]: 4.09 ± 0.35 kcal/mol | folding stability dG unfold [3]: 4.47 ± 0.3 kcal/mol

SAGGSAMLVIEIEVDGKKVTLVIEVPPEMTEEEIRELAEELAERLRALPGVKEVKVKIERVPPPPESAGGSA [r15_246_TrROS_Hall]
folding stability dG unfold [1]: 3.85 ± 0.26 kcal/mol | folding stability dG unfold [2]: 4.06 ± 0.22 kcal/mol | folding stability dG unfold [3]: 3.56 ± 0.18 kcal/mol

SAGGSAMLVKVTITLKKGGKEYTLEQFVEVNPPDLKIEIPPEIKEKGWEIVDIEVEEITPEEAERKSAGGSA [r15_853_JUSTAS]
folding stability dG unfold [1]: 2.8 ± 0.28 kcal/mol | folding stability dG unfold [2]: 1.24 ± 0.091 kcal/mol | folding stability dG unfold [3]: 3.19 ± 0.039 kcal/mol

SAGGSAMLVVADDPEVVRELVEPLFPDGEPVLVVGATEEEAAKLVEELKKKGLPFKVVVVRRPDRPSAGGSA [r15_567_TrMRF]
folding stability dG unfold [1]: 0.657 ± 0.14 kcal/mol | folding stability dG unfold [2]: 0.932 ± 0.048 kcal/mol | folding stability dG unfold [3]: -0.039 ± 0.23 kcal/mol

SAGGSAMMLAKVKIELPNGEIVEIPIEFESLEELEEKIKEKARELFPDIPIEDIKILDIELYSLEESAGGSA [r15_220_TrMRF]
folding stability dG unfold [1]: 5.31 ± 0.34 kcal/mol | folding stability dG unfold [2]: 4.06 ± 0.27 kcal/mol | folding stability dG unfold [3]: 5.32 ± 0.13 kcal/mol

SAGGSAMMTLEEAIEKAAKNIPVGEKKIIEIKLEKGTFTVEIEKIGPKEVKIKILKISKGPEEEEISAGGSA [r15_150_TrMRF]
folding stability dG unfold [1]: 4.61 ± 0.3 kcal/mol | folding stability dG unfold [2]: 3.99 ± 0.23 kcal/mol | folding stability dG unfold [3]: 4.68 ± 0.18 kcal/mol

SAGGSAMPEDTPFVVTKTTEYRLPDGSRVTFEPVPETGKTLVTFTPPDGSSERVWLTPEEAEKLLASAGGSA [r15_2_JUSTAS]
folding stability dG unfold [1]: 1.22 ± 0.11 kcal/mol | folding stability dG unfold [2]: 1.11 ± 0.02 kcal/mol | folding stability dG unfold [3]: 1.3 ± 0.1 kcal/mol

SAGGSAMPLLIVDKNNNVTLISASSPEELEELLKKYNIKKIEPFPFPDGKALVFIAEYPDGIIYSGSAGGSA [r15_632_TrMRF]
folding stability dG unfold [1]: 1.52 ± 0.049 kcal/mol | folding stability dG unfold [2]: 1.3 ± 0.02 kcal/mol | folding stability dG unfold [3]: 1.65 ± 0.047 kcal/mol

SAGGSAMPVVELPIGPELYEKIKEAAEAGDPDKVITLPLKLPNGEEVTLVVEADPATPEFRARVELSAGGSA [r15_700_TrMRF]
folding stability dG unfold [1]: 0.105 ± 0.096 kcal/mol | folding stability dG unfold [2]: -0.683 ± 0.1 kcal/mol | folding stability dG unfold [3]: 0.397 ± 0.085 kcal/mol

SAGGSAMQQLDITKTKWDPNTGTLSVTAKDPLTGEVTTYTIPRNGPTLNFPPGAELKSVETEPPPLSAGGSA [r15_959_JUSTAS]
folding stability dG unfold [1]: -0.0792 ± 0.27 kcal/mol | folding stability dG unfold [2]: 0.0912 ± 0.28 kcal/mol | folding stability dG unfold [3]: -0.368 ± 0.37 kcal/mol

SAGGSAMSITISDISSVKNLTITETTPDGTPVTVTVNATTGSGPPTLTFTATTPGTGATTTTTTAFSAGGSA [r15_1006_JUSTAS]
folding stability dG unfold [1]: 0.38 ± 0.051 kcal/mol | folding stability dG unfold [2]: 0.693 ± 0.014 kcal/mol | folding stability dG unfold [3]: -0.299 ± 0.099 kcal/mol

SAGGSAMSLEELKGHLVRLTLPDGRVVVAPVKEMDEEAPVLVIEFGGKPILIPKDAPVKLEVLPPGSAGGSA [r15_355_TrMRF]
folding stability dG unfold [1]: 0.759 ± 0.062 kcal/mol | folding stability dG unfold [2]: 0.962 ± 0.039 kcal/mol | folding stability dG unfold [3]: 0.581 ± 0.052 kcal/mol

SAGGSAMSPEEVEEKIKEIAKKLGVEIEVKVEISPEGGIKITVKVNDKFDINEIKKGIEEALGIKLSAGGSA [r15_807_JUSTAS]
folding stability dG unfold [1]: 3.94 ± 0.45 kcal/mol | folding stability dG unfold [2]: 4.4 ± 0.55 kcal/mol | folding stability dG unfold [3]: 2.65 ± 0.16 kcal/mol

SAGGSAMSVTLTFEEPVGPGVPVKVTVTVERFPDSVKVTVTTTFPDGTVTTTPVSLKLEPAAVDLLSAGGSA [r15_263_JUSTAS]
folding stability dG unfold [1]: 2.54 ± 0.082 kcal/mol | folding stability dG unfold [2]: 2.44 ± 0.11 kcal/mol | folding stability dG unfold [3]: 2.694 ± 0.022 kcal/mol

SAGGSAMTAEEVEEKVREAFAALGVEAEVEVRESPEGGLEVLVVTGEDADLEEVKAALEELFGTDISAGGSA [r15_807_TrMRF]
folding stability dG unfold [1]: 2.48 ± 0.078 kcal/mol | folding stability dG unfold [2]: 2.51 ± 0.12 kcal/mol | folding stability dG unfold [3]: 2.5 ± 0.064 kcal/mol

SAGGSAMTIEIVVPTLEAIEKLAEETGAEVVEVRFFEEEGLVVVRIKVPESKEELLEKIREALGLESAGGSA [r15_118_TrROS_Hall]
folding stability dG unfold [1]: 2.11 ± 0.1 kcal/mol | folding stability dG unfold [2]: 2.17 ± 0.069 kcal/mol | folding stability dG unfold [3]: 2.1 ± 0.092 kcal/mol

SAGGSAMTIEKREDGYLVITVDVPPGTSPEELAERLKKLFPNEEVTVTVVKDGKLVKEFVIKAEDLSAGGSA [r15_1047_TrROS_Hall]
folding stability dG unfold [1]: 2.2 ± 0.071 kcal/mol | folding stability dG unfold [2]: 2.25 ± 0.056 kcal/mol | folding stability dG unfold [3]: 2.06 ± 0.034 kcal/mol
